Results from US20230220589A1.

Assays:
[1] = biological target: M90-modified L NTAA target peptide; assay: affinity comparison between P1 residues (method not specified; BLI / encoding assay)
[2] = biological target: M90-modified F NTAA target peptide; assay: as above
[3] = biological target: M12-modified F NTAA target peptides (M12-F-P2-peptide); assay: multiplex encoding assay on 288 immobilized peptides (FIG. 9); holds for at least 14 P2 residues
[4] = biological target: M12-modified L NTAA target peptides (M12-L-P2-peptide); assay: multiplex encoding assay on 288 immobilized peptides (FIG. 10); holds for at least 11 P2 residues
[5] = biological target: M48-modified L NTAA target peptides (M48-L-P2-peptide); assay: Gini coefficient of P2 tolerance from multiplex encoding heatmap
[6] = biological target: M48-modified L NTAA target peptides (M48-L-P2-peptide); assay: Gini coefficient of P1 selectivity from multiplex encoding heatmap
[7] = biological target: M44-modified Y NTAA target peptides (M44-Y-P2-peptide); assay: Gini coefficient of P2 tolerance from multiplex encoding heatmap
[8] = biological target: M44-modified Y NTAA target peptides (M44-Y-P2-peptide); assay: Gini coefficient of P1 selectivity from multiplex encoding heatmap
[9] = biological target: M2014-modified Y NTAA target peptides (M2014-Y-P2-peptide); assay: Gini coefficient of P2 tolerance from multiplex encoding heatmap
[10] = biological target: M2014-modified Y NTAA target peptides (M2014-Y-P2-peptide); assay: Gini coefficient of P1 selectivity from multiplex encoding heatmap

B1: SEQ ID NO 53 (designed binder, not shown: small tags and cut ends; large carriers)
chain: QIPLCANLVPVPITNATLDRITGKWFLIASASRNEEYNKSVQGSQNTAFYFTPNKTEDTIFLRRYQTRQNQCFYNSSYLNVQRENGTVSSYFGGRENVIHLLFLRDTKTLMLGRYLDDEKNWGLEFYADKPETTKEQLGEFYEALDCLRIPRSDVMYTDWKKDKCEPLEKQHEKERKQEEGES
[1]
  fold affinity over an otherwise identical peptide with a different P1: > 2 fold

B2: SEQ ID NO 51 (designed binder, not shown: small tags and cut ends; large carriers)
chain: QIPLCANLVPVPITNATLDRITGKWFHIASAIRNEEYNKSVQRQQSTHFYITPNKTEDTIFTRVYQTRQNQCFYNSSYLNVQRENGTVSLYSGGREVVGHLLFLRDTKTLMWGTYLDDEKNWGLEFWADKPETTKEQLGEFYEALDCLRIPRSDVMYTDWKKDKCEPLEKQHEKERKQEEGES
[2]
  fold affinity over an otherwise identical peptide with a different P1: > 2 fold

B3: engineered M12-F binder (SEQ ID NO: 50) (designed binder, not shown: small tags and cut ends; large carriers)
chain: GPVPTPPDNIQVQENFNISRIYGKWYPLAMGSTSPYLKKSMDIMTPSYLVLGEGATEAEISWTETFWRKGVCEEGSGALEKTDTDGKFLYHKSKWNITEERYVVHTNYDEYAIVLVKKFSRHHGPTIEAVLMGRAPQLRETLLQDFRVVAQGVGIPEDSIFTMADRGECVPGEQ
[3]
  encoding efficiency (fraction of recording tags encoded): > 0.15

B4: engineered M12-L binder (SEQ ID NO: 49) (designed binder, not shown: small tags and cut ends; large carriers)
chain: QVSVQPNFQQDKFLGRWFVAGIASNSSWSREKIAALSFAKGVVAPATDGGLNYTETVLRKNQCETQTVLLQPAGSLGSYSARSPHQGSTRSFSVVETDYDQYALLYAQGSKGPGEDDRVAGLWSRTQTPRAELKEKFTAFSKAQGFTEDTIVFLPQTDKCMTEQ
[4]
  encoding efficiency (fraction of recording tags encoded): > 0.15

B5: SEQ ID NO 27 (designed binder, not shown: small tags and cut ends; large carriers)
chain: QVSVQPNFQQDKFLGRWFIAGQASNSSWQREKCAALSRAKVVVAPATDGGLNLTMTLLRKNQCETRTTLLQPAGSLGSYSYRSPHLGSTVSWSVVETDYDQYALMYVQGSKGPGEDQRFAILWSRTQTPRAELKEKFTAFSKAQGFTEDTIVFLPQTDKCMTEQ
[5]
  P2 score: 0.312
[6]
  P1 score: 0.0571

B6: SEQ ID NO 45 (designed binder, not shown: small tags and cut ends; large carriers)
chain: TVPDRSEIAGKWYVVALASNTEFLLREKDSLKSAMARISFLGEDELKVSYARPLPNGCLKLEATMKKTSDDGEVYLSRSAKLKVEVLDTDYKSYAVIYATPVKDGRTRHYMALYSRSPEVSPAATAIFRKLAGERNYTDEMVAMLPRQEECTVDEV
[7]
  P2 score: 0.426
[8]
  P1 score: 0.301

B7: SEQ ID NO 48 (designed binder, not shown: small tags and cut ends; large carriers)
chain: QDSTQNLIPAPSLLTVPLQPDFRSDQFRGRWYVVGLAGNAVQKKTEGSFTMLSLIYELQENNSYNVTAIFVRDQDQGCRYVIDTLVPSSRAGQFTPGSMGRFPQVQSYNVQVATTDYNQFAMVFVRVTSENKQYFEITLLGRTKELSPELKERFTRFAKSLGLKDDNIIFSVPTDQCIDNSAWSHPQFEK
[9]
  P2 score: 0.255
[10]
  P1 score: 0.238
